B1: VH:VL chains; a variant is named by its letters at X, in order (parent)
chain 1: QVQLVQSGAEVKKPGASVKVSCKASGYTFTDYXMHWVRQAPGQGLEWMGXVNPNXXXTTYNQKFEGRVTMTTDTSTSTAYMELRSLRSDDTAVYYCARXNXLDXWGQGTTVTVSS
chain 2: DIQMTQSPSSLSASVGDRVTITCSVSSSVSSIYLHWYQQKPGKAPKLLIYSTSNLASGVPSRFSGSGSGTDFTLTISSLQPEDFATYYCQVYSGYPLTFGGGTKVEIK

Variants of: B1
Test: yeast display scFab, FACS + sequencing
Outline: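 The non-specific binding call was based on sorted and sequenced yeast displaying a heavy-chain CDR mutant scFab library. Labelling used anti-Myc with biotinylated ovalbumin (260 μg/mL in PBSB, 3 h, room temperature) or soluble membrane proteins (130 μg/mL, 20 min on ice), and FACS collected the top 25% and bottom 10% of binders in two replicates. Positive meant present in ≥3 of 4 pooled positive samples and in no negatives, and negative meant the converse.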

Variant	non-specific binding call
FTKGSAGY	binds
VTKESAAV	no binding
VTKTGAAA	no binding
VTRGASGA	no binding
DTKRTAGD	no binding
YTGTSAWA	no binding
VTGTGSVD	no binding
DTGTGSVD	no binding
YTKTSSVD	binds
FTKAASWV	no binding
YTKTGDAV	no binding
STKAASWV	no binding
DTREGDGA	no binding
VTKETFSF	no binding
VTKGGSSA	no binding
ATKTAFVS chain 1 M34I	no binding
STKRSFWA	binds
FTREASAV	binds
DTKAAAGD	no binding
YTGTSDWY	no binding
YTGTSDWV	no binding
YTKETAAD	binds
VTRGADAA	no binding

Variant	non-specific binding call
VTRGADAV	no binding
DTRGADAV	no binding
FTRAGAAA	binds
DTKAASSA	no binding
DTKAASSS	no binding
VTKAASWV	no binding
FTRGADAV	no binding
YTKRSAVV	binds
DTREGDVD	no binding
DTREGDVA	no binding
DTREGDVY	no binding
YTKGTSVA chain 1 E65K	binds
YTRGAAVA	no binding
STGTGYVF	no binding
STGTSDLY	no binding
VTRGADGV	no binding
FTGTSDLY	no binding
ATKAASWV	no binding
YTKRGDWD	binds
YTRGAALA	no binding
DTKRTAVA	binds
YTGTSASD	no binding
VTGTGYVF	no binding

Variant	non-specific binding call
DTREGAVV	no binding
FTKASYVY	binds
DTKAAAVV	no binding
YTRGADVV	no binding
YTRGADVA	no binding
YTGTSAGV	no binding
YTGTSAGD	no binding
DTKGDSVS	no binding
VTGTSDLY	no binding
DTGTSDLY	no binding
YTGTSDVY	no binding
YTGTSDVS	no binding
DTGTSAAF	binds
VTGTSSLD	no binding
YTKRGSAA	binds
YTRGADLA	no binding
YTRGASLD	no binding
YTRGAASD	no binding
YTRGAAGY	no binding
YTRGAAGV	no binding
YTRGADGV	no binding
YTRGADGS	no binding
YTRGADGA	no binding

Variant	non-specific binding call
DTKAADVA	no binding
YTRAGAAA	binds
STGTSDVF	no binding
YTRAGSAA	binds
ATRGADAV	no binding
YTGTSSGA	no binding
DTREGDAV	no binding
YTGTSAVA	no binding
YTGTSAVV	no binding
YTGTSAVS	no binding
VTKTGDVA	no binding
FTRESFAA	binds
YTGTSDLD	no binding
YTGTSDLA	no binding
YTGTSDLV	no binding
YTGTSSAD	no binding
YTKEASGY	binds
YTKKTFSY	binds
YTGTSDGV	no binding
YTGTSDAV	no binding
VTGTSDVA	no binding
YTKRSSGA	binds
YTGTSSLD	no binding

Variant	non-specific binding call
YTGTSSSA	no binding
YTGTSSSV	no binding
YTRGASGA	no binding
YTRGADWY	no binding
YTRGADWA	no binding
DTGTGSWD	no binding
STRGADAV	no binding
FTGTSAAF	binds
ATKGAAVA	no binding
DTKAADGV	no binding
YTREGAVA	no binding
DTKAASWV	no binding
DTKAASWA	no binding
VTREGAVA	no binding
YTKAASWV	no binding
DTKAADWV	no binding
DTKAADWY	no binding
VTKTGDAV	no binding
DTKAASGV	no binding

From the emibetuzumab library of Makowski et al. (2022)
